The results in this text go back to US20040132642A1, “Methods of inhibiting metastasis or growth of a tumor cell” (Government of the U.S.A., represented by the Secretary, …, priority 2002, published 2004).

Test [1] has as its target human CXC Chemokine Receptor-4 (CXCR4) (human) (UniProt P61073). In words: cell-based or functional assay.
Test [2] addresses LMEC-derived CXCL12 (endogenous CXCL12 of human lung microvascular endothelial cells) (human) (UniProt P48061). In words: cell-based or functional assay.

human CXC Chemokine Receptor-4 (CXCR4) (human), sequence (P61073 whole entry): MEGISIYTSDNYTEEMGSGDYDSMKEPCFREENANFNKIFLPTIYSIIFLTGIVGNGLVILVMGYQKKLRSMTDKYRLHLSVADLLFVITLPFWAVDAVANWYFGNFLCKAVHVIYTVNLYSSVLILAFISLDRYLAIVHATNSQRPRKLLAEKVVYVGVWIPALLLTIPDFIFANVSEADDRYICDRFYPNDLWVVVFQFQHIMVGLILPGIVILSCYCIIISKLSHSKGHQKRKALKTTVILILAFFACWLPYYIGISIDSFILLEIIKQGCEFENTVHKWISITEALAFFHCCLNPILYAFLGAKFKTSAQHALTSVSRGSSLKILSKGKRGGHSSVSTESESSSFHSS
recombinant CXCL12 (SDF-1) (ligand), sequence (P48061 22-93): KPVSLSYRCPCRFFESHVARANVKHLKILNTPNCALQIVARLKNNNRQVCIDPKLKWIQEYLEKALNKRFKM
CCL19 (control chemokine) (ligand), sequence (Q99731 22-98): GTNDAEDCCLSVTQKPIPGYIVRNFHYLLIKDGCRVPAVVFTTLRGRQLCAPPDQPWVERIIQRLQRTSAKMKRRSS
LMEC-derived CXCL12 (endogenous CXCL12 of human lung microvascular endothelial cells) (human), sequence (P48061 22-93 limits assumed): as the sequence (P48061 22-93) above

Consider “Mouse anti-human CXCR4 mAb (clone 44716.111, R&D Systems) (antibody)”, for which, in test [1], the arrest on TNF-α-stimulated LMEC of CXCR4-B16 cells pretreated with anti-CXCR4 mAb (10 µg/ml) (Mean adherent cells/field) was 7.5.

As for recombinant CXCL12 (SDF-1) (ligand), in test [1], the adhesion of CXCR4-B16 cells to CXCL12-treated DMEC (adherent cells, parallel plate flow chamber) came out at 85.2; the adhesion of CXCR4-B16 cells to CXCL12-treated LMEC (adherent cells) was 321; the arrest of CXCR4-B16 cells on TNFα-treated LMEC under flow, with exogenous CXCL12 (Mean adherent cells/field) is 170; the arrest of CXCR4-B16 cells on plates co-coated with VCAM-1/Ig and CXCL12 at 1.5 dynes/cm^2 (Mean adherent cells/field) stood at 87.2. In test [1], the growth of CXCR4-B16 cells in low serum, cell count at 24 h amounted to 19.3 and the growth of CXCR4-B16 cells in low serum, cell count at 48 h is 35.3.

In the case of CCL19 (control chemokine) (ligand), in test [1], the adhesion of CXCR4-B16 cells to chemokine-treated DMEC (adherent cells, parallel plate flow chamber) was found to be 6.8; the arrest of CXCR4-B16 cells on plates co-coated with VCAM-1/Ig and CCL19 at 1.5 dynes/cm^2 (Mean adherent cells/field) turned out to be 17.2.

Take “LMEC-derived CXCL12 (endogenous CXCL12 of human lung microvascular endothelial cells) (from UniProt P48061 22-93) (ligand)”: in test [1], the arrest of CXCR4-B16 against pLNCX2-B16 cells on LMEC, no exogenous CXCL12 is 3 times and the arrest of CXCR4-B16 cells on TNFα-treated LMEC under flow, no exogenous CXCL12 (Mean adherent cells/field) is 102.

Consider “anti-human CXCL12 mAb (clone 77014.111, R&D Systems) (antibody)”, for which, in test [2], the arrest of CXCR4-B16 cells on LMEC pretreated with anti-CXCL12 mAb (100 µg/ml) (Mean adherent cells/field) turned out to be 41.2.
